Sequences and labels used below:
B1: TPR t1 (parent)
chain: GACCAAUCUGCCCUCAGAGCUCGAGAACAUCUUCGGAUGCAGAGGAGGCAGGCUUCGGUGGCGCGAUAGCGCCAACGUCCUCAACCUCCAAUGCAUCCCACCACAUGAUGAUGCCUGAAGAGCCUUGGUUUUUUG

This is an account of results in the RNAGym collection of RNA variant scans (doi:10.1073/pnas.2313332121).

The series covers variants of B1. Nature of the series: polymerase ribozyme fitness, log enrichment relative to wild type (log ratio); higher = more active; in vitro selection for triplet polymerase activity. Summed up:
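Libraries of mutants in each subunit of a heterodimeric triplet polymerase ribozyme were generated by PCR and transcribed. In triplicate, each went through one in vitro selection round: annealing with biotinylated primer, partner subunit and triplets; frozen incubation at −7 °C; gel excision of extended constructs; streptavidin-bead capture; RT-PCR. Fitness, taken from Illumina sequencing of input and output libraries, is the logarithm of a genotype's enrichment over wild-type enrichment, averaged across replicates with inverse-variance weights. The logarithm is base 2, and genotypes needed ≥10 input reads and ≥1 read per output to be kept.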
For G47U G71C C104A, the “polymerase ribozyme fitness (log ratio)” value is -4.32. To C49A belongs -0.241. To G45U G63U C101G U112A belongs -2.32; to C12U C20G G63U U106C, -6.59. To G60C G120A belongs 0.168; to G52A G58U C73G, -0.432; to G45C, -1.57.

For the variant G44A G60U A108U C115A A121U, the “polymerase ribozyme fitness (log ratio)” value is -4.86. For A18U C62U C64U A74C A90U A121C U129A the value was -6.59; for G61C U78C, -2; for G117C U133G, -3.89. To A43C C88U G93A belongs -1.96. For C56G C85U A121U the value was 0.921; for C20G G61A, -3.66; for C82U A111G, -0.268.

Turning to C72U A84G, the “polymerase ribozyme fitness (log ratio)” value is -1.74.

A27U U96A: the “polymerase ribozyme fitness (log ratio)” value is -4.07.

Turning to C12U A26G C64A C73U G110C, the “polymerase ribozyme fitness (log ratio)” value was -5.13.

On to C20U C49U A90U G117U, for which the “polymerase ribozyme fitness (log ratio)” value is -4.34. For G10A G60U the value was -0.0901; for A6U G17C A50C U87A, -4.69; for G110U U116A, -3.44. To A41U A46U C115A G120U C123G belongs -2.25; to G42U G77A C88A U92C, -3.21.

C15G G47A C70G G117C: the “polymerase ribozyme fitness (log ratio)” value was -3.82. For C56U A95C C98U the value was -1.83.

C97U G120A: the “polymerase ribozyme fitness (log ratio)” value came out at 0.391. To G35C G36A C40A C94U C114U belongs -6.41; to G39U U78G, -0.403. C73U C79U U87A: the “polymerase ribozyme fitness (log ratio)” value is -0.627. For A29G C34A the value was -4.34. For G63U U133A the value was -2.29; for G63A C99A A121C, -5.41. For A43C A46C G60A U87A C101U the value was -2.45; for G17U G42A, -3.86; for U9G U78C C79G G110A, -2.65. As for U54C C97A, the “polymerase ribozyme fitness (log ratio)” value was -5.83. To A2G G10A C53U C62U A90G belongs -0.379; to G19U G42A, -3.15.

Regarding A5C C40U, the “polymerase ribozyme fitness (log ratio)” value was -1.31. To C8G C40A C98U G127C belongs -2.67. For A41C C104A G122A the value was -3.8; for C79G G127A, -2.38; for A18C U59A C89U G122A, -3.38. A5U C8U A46G G60U A66U: the “polymerase ribozyme fitness (log ratio)” value was -1.11. For G17C A84U the value was -4.87.

Take C101U A111C: the “polymerase ribozyme fitness (log ratio)” value was 0.393. Turning to C28U G113U, the “polymerase ribozyme fitness (log ratio)” value is -4.02.

Turning to G17A G61U C104U A111G, the “polymerase ribozyme fitness (log ratio)” value is -2.95.

With U9C C99A C101U U132C, the “polymerase ribozyme fitness (log ratio)” value was -6.34. For U38G U125G the value was -1.35. For G60C G61U the value was -1.76; for U38C U59G A95C, -0.718; for G17A C123A, -3.08. As for A6U G45A A50U G113C, the “polymerase ribozyme fitness (log ratio)” value is -5.5. With U131G U133A, the “polymerase ribozyme fitness (log ratio)” value is -0.289.

As for C11A C89A G93A A118G, the “polymerase ribozyme fitness (log ratio)” value was -3.96. To G48A G57C C115G G122A belongs -1.91. To G69U A84C C124A belongs 1.33.

Consider C11U C13G A66C C76G A118U C124A U133A, for which the “polymerase ribozyme fitness (log ratio)” value is -0.556.

C123A U125C U129G: the “polymerase ribozyme fitness (log ratio)” value is -1.5. To U9A U21A G45C C70A C82U U116G U132C G135C belongs -1.83; to C70A A75G, -2.89; to U9A G47A U96G, -0.976. For the variant C70U A111U, the “polymerase ribozyme fitness (log ratio)” value is -4.03. For C13G A18U A27G C53U C70U C89A C104U the value was -5.81. For A18U A41U C56U C72A U133A the value was -3.75; for A6G C49G C56G U81G C114U U132C, -5.17; for U7G C11U C97U, 0.101. To C4A C56G belongs -1.83.

Consider C12U C13G C82A G117A, for which the “polymerase ribozyme fitness (log ratio)” value was -2.59. With C15A G45A C97U A121G U130G, the “polymerase ribozyme fitness (log ratio)” value is -0.808. Regarding C70U U87A C97U U112A C115U G127A, the “polymerase ribozyme fitness (log ratio)” value was -4.04. For U38A G63C C85U, the “polymerase ribozyme fitness (log ratio)” value was -2.4. To G47A G71U belongs -0.472; to U38G G93C A121U U133G, -1.6. For U59A C62G U87A U129C U130G, the “polymerase ribozyme fitness (log ratio)” value is -4.15. As to A18U A26G C40G A43U C97A U112A, the “polymerase ribozyme fitness (log ratio)” value was -6.73. To A37U C85U belongs -1.29; to G35C G61C C98G, -5.36; to A29C G36U C73U, -3.91. To C15U G47A G69C C85A A119U C124U belongs -3.68. To A5C C13U C70U A84C U131A belongs -1.24; to G39A A74G, -0.641.
